According to PMC8586251, “Cryo-EM structure provides insights into the dimer arrangement of the O-linked β-N-acetylglucosamine transferase OGT” (Nature Communications, 2021):

Experiments:
[1] = target: O-GlcNAc transferase OGT, full length, isoform 3, double mutant (W208A, I211A) (UniProt O15294)
[2] = target: the molecule itself; test: SEC-MALS; SEC-MALLS; Superdex S200 10/300 GL in 20 mM HEPES 7.5, 200 mM NaCl, room temperature; 100 µl of 3 mg/ml OGT injected, 0.5 ml/min; dimer against monomer

| Molecule | relative second order rate constant of glycosyl transfer to TAB1 protein (fluorescent OGT activity assay), against wildtype OGT (% lower than wildtype) [1] | stoichiometry N [2] |
| --- | --- | --- |
| O-GlcNAc transferase OGT, full length, isoform 3, double mutant (W208A, I211A) (from UniProt O15294-1 1-1046) (enzyme) | 50 |  |
| O-GlcNAc transferase OGT, full length, isoform 3, wildtype (construct for SEC-MALLS) (enzyme, UniProt O15294-1 1-1046, looked up, also called OGT wildtype; source: E. coli BL21-Gold(DE3), purified (HisTrap, Q Sepharose, Superdex 200)) MASSVGNVADSTEPTKRMLSFQGLAELAHREYQAGDFEAAERHCMQLWRQEPDNTGVLLLLSSIHFQCRRLDRSAHFSTLAIKQNPLLAEAYSNLGNVYKERGQLQEAIEHYRHALRLKPDFIDGYINLAAALVAAGDMEGAVQAYVSALQYNPDLYCVRSDLGNLLKALGRLEEAKACYLKAIETQPNFAVAWSNLGCVFNAQGEIWLAIHHFEKAVTLDPNFLDAYINLGNVLKEARIFDRAVAAYLRALSLSPNHAVVHGNLACVYYEQGLIDLAIDTYRRAIELQPHFPDAYCNLANALKEKGSVAEAEDCYNTALRLCPTHADSLNNLANIKREQGNIEEAVRLYRKALEVFPEFAAAHSNLASVLQQQGKLQEALMHYKEAIRISPTFADAYSNMGNTLKEMQDVQGALQCYTRAIQINPAFADAHSNLASIHKDSGNIPEAIASYRTALKLKPDFPDAYCNLAHCLQIVCDWTDYDERMKKLVSIVADQLEKNRLPSVHPHHSMLYPLSHGFRKAIAERHGNLCLDKINVLHKPPYEHPKDLKLSDGRLRVGYVSSDFGNHPTSHLMQSIPGMHNPDKFEVFCYALSPDDGTNFRVKVMAEANHFIDLSQIPCNGKAADRIHQDGIHILVNMNGYTKGARNELFALRPAPIQAMWLGYPGTSGALFMDYIITDQETSPAEVAEQYSEKLAYMPHTFFIGDHANMFPHLKKKAVIDFKSNGHIYDNRIVLNGIDLKAFLDSLPDVKIVKMKCPDGGDNADSSNTALNMPVIPMNTIAEAVIEMINRGQIQITINGFSISNGLATTQINNKAATGEEVPRTIIVTTRSQYGLPEDAIVYCNFNQLYKIDPSTLQMWANILKRVPNSVLWLLRFPAVGEPNIQQYAQNMGLPQNRIIFSPVAPKEEHVRRGQLADVCLDTPLCNGHTTGMDVLWAGTPMVTMPGETLASRVAASQLTCLGCLELIAKNRQEYEDIAVKLGTDLEYLKKVRGKVWKQRISSPLFNTKQYTMELERLYLQMWEHYAAGNKPDHMIKPVEVTESA |  | 2 |
| O-GlcNAc transferase OGT, full length, isoform 3, E206A (enzyme, UniProt O15294-1 1-1046, looked up, O-GlcNAc transferase OGT, isoform 3, UniProt O15294-1, full length, site-directed mutant; source: E. coli BL21-Gold(DE3), purified (HisTrap, Q Sepharose, Superdex 200)) MASSVGNVADSTEPTKRMLSFQGLAELAHREYQAGDFEAAERHCMQLWRQEPDNTGVLLLLSSIHFQCRRLDRSAHFSTLAIKQNPLLAEAYSNLGNVYKERGQLQEAIEHYRHALRLKPDFIDGYINLAAALVAAGDMEGAVQAYVSALQYNPDLYCVRSDLGNLLKALGRLEEAKACYLKAIETQPNFAVAWSNLGCVFNAQGAIWLAIHHFEKAVTLDPNFLDAYINLGNVLKEARIFDRAVAAYLRALSLSPNHAVVHGNLACVYYEQGLIDLAIDTYRRAIELQPHFPDAYCNLANALKEKGSVAEAEDCYNTALRLCPTHADSLNNLANIKREQGNIEEAVRLYRKALEVFPEFAAAHSNLASVLQQQGKLQEALMHYKEAIRISPTFADAYSNMGNTLKEMQDVQGALQCYTRAIQINPAFADAHSNLASIHKDSGNIPEAIASYRTALKLKPDFPDAYCNLAHCLQIVCDWTDYDERMKKLVSIVADQLEKNRLPSVHPHHSMLYPLSHGFRKAIAERHGNLCLDKINVLHKPPYEHPKDLKLSDGRLRVGYVSSDFGNHPTSHLMQSIPGMHNPDKFEVFCYALSPDDGTNFRVKVMAEANHFIDLSQIPCNGKAADRIHQDGIHILVNMNGYTKGARNELFALRPAPIQAMWLGYPGTSGALFMDYIITDQETSPAEVAEQYSEKLAYMPHTFFIGDHANMFPHLKKKAVIDFKSNGHIYDNRIVLNGIDLKAFLDSLPDVKIVKMKCPDGGDNADSSNTALNMPVIPMNTIAEAVIEMINRGQIQITINGFSISNGLATTQINNKAATGEEVPRTIIVTTRSQYGLPEDAIVYCNFNQLYKIDPSTLQMWANILKRVPNSVLWLLRFPAVGEPNIQQYAQNMGLPQNRIIFSPVAPKEEHVRRGQLADVCLDTPLCNGHTTGMDVLWAGTPMVTMPGETLASRVAASQLTCLGCLELIAKNRQEYEDIAVKLGTDLEYLKKVRGKVWKQRISSPLFNTKQYTMELERLYLQMWEHYAAGNKPDHMIKPVEVTESA |  | 2 |
| O-GlcNAc transferase OGT, full length, isoform 3, E215A (enzyme, UniProt O15294-1 1-1046, looked up, O-GlcNAc transferase OGT, isoform 3, UniProt O15294-1, full length, site-directed mutant; source: E. coli BL21-Gold(DE3), purified (HisTrap, Q Sepharose, Superdex 200)) MASSVGNVADSTEPTKRMLSFQGLAELAHREYQAGDFEAAERHCMQLWRQEPDNTGVLLLLSSIHFQCRRLDRSAHFSTLAIKQNPLLAEAYSNLGNVYKERGQLQEAIEHYRHALRLKPDFIDGYINLAAALVAAGDMEGAVQAYVSALQYNPDLYCVRSDLGNLLKALGRLEEAKACYLKAIETQPNFAVAWSNLGCVFNAQGEIWLAIHHFAKAVTLDPNFLDAYINLGNVLKEARIFDRAVAAYLRALSLSPNHAVVHGNLACVYYEQGLIDLAIDTYRRAIELQPHFPDAYCNLANALKEKGSVAEAEDCYNTALRLCPTHADSLNNLANIKREQGNIEEAVRLYRKALEVFPEFAAAHSNLASVLQQQGKLQEALMHYKEAIRISPTFADAYSNMGNTLKEMQDVQGALQCYTRAIQINPAFADAHSNLASIHKDSGNIPEAIASYRTALKLKPDFPDAYCNLAHCLQIVCDWTDYDERMKKLVSIVADQLEKNRLPSVHPHHSMLYPLSHGFRKAIAERHGNLCLDKINVLHKPPYEHPKDLKLSDGRLRVGYVSSDFGNHPTSHLMQSIPGMHNPDKFEVFCYALSPDDGTNFRVKVMAEANHFIDLSQIPCNGKAADRIHQDGIHILVNMNGYTKGARNELFALRPAPIQAMWLGYPGTSGALFMDYIITDQETSPAEVAEQYSEKLAYMPHTFFIGDHANMFPHLKKKAVIDFKSNGHIYDNRIVLNGIDLKAFLDSLPDVKIVKMKCPDGGDNADSSNTALNMPVIPMNTIAEAVIEMINRGQIQITINGFSISNGLATTQINNKAATGEEVPRTIIVTTRSQYGLPEDAIVYCNFNQLYKIDPSTLQMWANILKRVPNSVLWLLRFPAVGEPNIQQYAQNMGLPQNRIIFSPVAPKEEHVRRGQLADVCLDTPLCNGHTTGMDVLWAGTPMVTMPGETLASRVAASQLTCLGCLELIAKNRQEYEDIAVKLGTDLEYLKKVRGKVWKQRISSPLFNTKQYTMELERLYLQMWEHYAAGNKPDHMIKPVEVTESA |  | 2 |
